In this experiment the target is T1, D614G VFLIP spike trimer (SARS-CoV-2, ancestral with D614G, VFLIP …, stabilised).
T1 construct: also called stabilized D614G ancestral trimeric spike ("VFLIP"); trimeric spike
Kind of experiment: cryo-EM structure. Particulars: both partners purified.

B1: GAR05 Fab (Fab, V domains shown)
VH: EVQLVQSGGDLVQPGGSLRLSCAVSGFTVSRNYMTWVRQAPGRGLEWVSLIYPGGSAFYADSVKGRFTISRDNSKNTLYLQMNSLRVEDTAVYYCARDPVSTGHYHDSDYWGQGTLVTVSS
VL: DIQMTQSPSALSASVGDRVTITCQASQDINKFLNWYQQKPGKAPKLLIYDASNLETGVPSRFSGGGSGTDFTFTISSLQPEDIATYYCHQYDNLPRTFGQGTKVELK
notes: also called GAR05 Fab fragment; source: ExpiCHO, purified (Talon resin, S200 SEC)
Take B1: the stoichiometry N (as a rule, a count of units in the complex or per binding partner) was 3 Fabs per spike trimer.

B2: GAR03 Fab (Fab, V domains shown)
VH: QVQLVQSGAEVKKPGASVKVSCKASGYTFSSYDINWVRQAPGQGLEWMGWMSPNSGNTGYAQKFQGRVTMTRSTSMSTAYMELSSLRSEDTAVYFCARMSSSLTNYLDYWGQGTLVTVSS
VL: SYVLTQPPSVAVAPGQTARIRCGENDIGSKNVHWYQQKSGQAPVLVVYDDSDRPSGIPERFSGSNSGNTATLTISRVEAGDEADYYCQVWDSTGDHPDVVFGGGTKLTVL
notes: also called GAR03 antibody Fab; source: ExpiCHO, purified (Talon resin, S200 SEC)
Consider B2, for which the “stoichiometry N” value stood at 1 Fab per spike trimer.

The record behind these values is PMC9907207 (Nature Communications, 2023).
